Laboratory results from patent US20200317768A1 (published 2020).

Tests used:
Assay in all cases: SPR (BIACORE); KD of SG1 / KD of variant;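 also: relative to parent M103205H795-SG1 carrying the SG1 human heavy chain constant region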
[1] = target: T1, human FcγRIIaH extracellular domain, C-terminal His-tag (human, UniProt P12318 34-217)
T1 construct: also called human FcγRIIa (type H); FcgRIIaH; not shown: His-tag added to C-terminus
T1 sequence: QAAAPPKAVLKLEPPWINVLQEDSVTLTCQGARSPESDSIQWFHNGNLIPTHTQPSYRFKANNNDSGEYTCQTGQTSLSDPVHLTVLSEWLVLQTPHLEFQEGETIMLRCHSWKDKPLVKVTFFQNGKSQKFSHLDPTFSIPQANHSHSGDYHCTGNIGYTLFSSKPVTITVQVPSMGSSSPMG
Procedure: (§1) The kinetic analysis of interactions between these antibodies and FcγR was carried out using BIACORE® T200 or BIACORE® 4000 (GE Healthcare). HBS-EP+ (GE Healthcare) was used as the running buffer, and the measurement temperature was set to 25° C. A chip produced by immobilizing Protein A. Protein A/G or mouse anti-human IgG kappa light chain (BD Biosciences) onto a Series S Sensor Chip CM4 or CM5 (GE Healthcare) by the amine-coupling method was used. […] After the measurement, the antibody captured on the chip was washed off by allowing reaction with 10 mM glycine-HCl, pH1.5 and 25 mM NaOH so that the chip was regenerated and used repeatedly. The sensorgrams obtained as measurement results were analyzed by the 1:1 Langmuir binding model using the BIACORE® Evaluation Software to calculate the binding rate constant ka (L/mol/s) and dissociation rate constant kd (l/s), and the dissociation constant KD (mol/L) was calculated from these values. […] Regarding such interactions, KD values were calculated using the following 1:1 binding model described in BIACORE® T100 Software Handbook BR1006-48 Edition AE.
(§2) The behavior of interacting molecules according to the 1:1 binding model on BIACORE® can be described by Equation 1: Req=C·R max/(KD+C)+RI, wherein, Req is a plot of steady-state binding levels to analyte concentration. C is concentration, RI is bulk refractive index contribution in the sample, and Rmax is analyte binding capacity of the surface. When this equation is rearranged, KD can be expressed as Equation 2: KD=C·Rmax/(Req−RI)−C. KD can be calculated by substituting the values of Rmax, RI, and C into Equation 1 or Equation 2. From the current measurement conditions, RI=0, C=2 μmol/L can be used.

[2] = target: T2, cynomolgus monkey FcγRIIIaS extracellular domain, C-terminal His-tag (cynomolgus monkey, UniProt A3RFZ7 21-206 (rhesus entry))
T2 construct: also called cyno FcγRIIIaS; cynoFcγRIIIaS; not shown: His-tag added to C-terminus
Procedure: as §1, §2

[3] = target: T3, human FcγRIIaR extracellular domain, C-terminal His-tag (human, UniProt P12318 34-217)
T3 construct: also called human FcγRIIa (type R); FcgRIIaR; not shown: His-tag added to C-terminus
T3 chain: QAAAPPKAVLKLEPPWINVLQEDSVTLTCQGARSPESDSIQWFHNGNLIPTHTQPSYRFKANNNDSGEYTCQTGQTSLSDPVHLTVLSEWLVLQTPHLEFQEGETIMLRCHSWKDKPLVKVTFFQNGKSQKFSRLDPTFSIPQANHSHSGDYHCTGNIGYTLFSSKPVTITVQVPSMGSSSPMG
Procedure: as §1, §2

[4] = target: T4, human FcγRIIb extracellular domain, C-terminal His-tag (human, UniProt P31994 43-217)
T4 construct: also called humanFcgRIIb; not shown: His-tag added to C-terminus
T4 sequence: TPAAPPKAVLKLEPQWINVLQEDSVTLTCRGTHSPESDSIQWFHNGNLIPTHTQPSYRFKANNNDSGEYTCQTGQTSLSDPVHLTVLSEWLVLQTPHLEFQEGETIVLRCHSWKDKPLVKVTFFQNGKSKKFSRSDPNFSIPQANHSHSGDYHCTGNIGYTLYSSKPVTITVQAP
Procedure: as §1, §2

[5] = target: T5, cynomolgus monkey FcγRIIa1 extracellular domain, C-terminal His-tag (cynomolgus monkey)
T5 construct: also called cyno FcγRIIa1; cynoFcgRIIa1; not shown: His-tag added to C-terminus
T5 chain: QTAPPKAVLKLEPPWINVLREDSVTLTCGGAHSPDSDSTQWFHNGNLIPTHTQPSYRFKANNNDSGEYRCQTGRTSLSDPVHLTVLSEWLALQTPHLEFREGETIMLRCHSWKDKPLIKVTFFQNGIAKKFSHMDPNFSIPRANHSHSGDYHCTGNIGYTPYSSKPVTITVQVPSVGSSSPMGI
Procedure: as §1, §2

[6] = target: T6, human FcγRIIIaV extracellular domain, C-terminal His-tag (human, UniProt P08637 17-208)
T6 construct: also called FcgRIIIaV; not shown: His-tag added to C-terminus
Procedure: as §1, §2

[7] = target: T7, cynomolgus monkey FcγRIIa2 extracellular domain, C-terminal His-tag (cynomolgus monkey)
T7 construct: also called cyno FcγRIIa2; cynoFcgRIIa2; not shown: His-tag added to C-terminus
T7 chain: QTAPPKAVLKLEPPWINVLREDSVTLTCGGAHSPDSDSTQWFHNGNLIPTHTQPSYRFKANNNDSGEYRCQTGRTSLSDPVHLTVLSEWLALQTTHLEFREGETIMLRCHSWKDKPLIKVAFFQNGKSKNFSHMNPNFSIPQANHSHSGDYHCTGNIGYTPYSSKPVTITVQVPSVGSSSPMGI
Procedure: as §1, §2

[8] = target: T8, cynomolgus monkey FcγRIIa3 extracellular domain, C-terminal His-tag (cynomolgus monkey)
T8 construct: also called cyno FcγRIIa3; cynoFcgRIIa3; not shown: His-tag added to C-terminus
T8 chain: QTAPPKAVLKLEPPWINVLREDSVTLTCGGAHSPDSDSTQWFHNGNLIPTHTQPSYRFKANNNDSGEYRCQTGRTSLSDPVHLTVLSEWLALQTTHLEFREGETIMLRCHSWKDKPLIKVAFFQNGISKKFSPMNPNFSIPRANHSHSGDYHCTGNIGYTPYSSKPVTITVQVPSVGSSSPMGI
Procedure: as §1, §2

[9] = target: T9, cynomolgus monkey FcγRIIb extracellular domain, C-terminal His-tag (cynomolgus monkey)
T9 construct: also called cyno FcγRIIb; cynoFcγRIIb; not shown: His-tag added to C-terminus
T9 chain: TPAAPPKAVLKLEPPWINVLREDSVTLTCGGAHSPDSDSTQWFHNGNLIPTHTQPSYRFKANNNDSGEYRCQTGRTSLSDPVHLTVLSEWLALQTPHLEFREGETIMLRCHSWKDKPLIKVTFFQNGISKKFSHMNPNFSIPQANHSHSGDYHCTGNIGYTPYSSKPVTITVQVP
Procedure: as §1, §2

T6 sequence (P08637 17-208 F176V): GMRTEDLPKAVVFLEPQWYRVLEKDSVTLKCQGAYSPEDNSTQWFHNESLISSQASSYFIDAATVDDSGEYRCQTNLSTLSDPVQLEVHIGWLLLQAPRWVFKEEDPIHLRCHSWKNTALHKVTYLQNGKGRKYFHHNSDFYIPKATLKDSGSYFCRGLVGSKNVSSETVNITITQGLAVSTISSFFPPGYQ
T2 sequence (A3RFZ7 21-206): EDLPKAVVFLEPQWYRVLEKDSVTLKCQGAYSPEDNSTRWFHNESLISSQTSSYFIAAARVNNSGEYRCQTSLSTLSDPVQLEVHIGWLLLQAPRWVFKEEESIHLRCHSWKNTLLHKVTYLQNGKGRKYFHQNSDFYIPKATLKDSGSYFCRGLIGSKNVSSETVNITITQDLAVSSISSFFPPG

B1: M103205H795-MY534 / M103202L889-SK1 (antibody, human IgG1, kappa)
heavy: QVTLKESGPVLVKPTETLTLTCTVSGIDLSHDDISWVRQAPGKGLEWVGIISYAGSTYYASWAKGRLTISKDTSKNQVVLTMTNMDPVDTATYYCARGVPAYSHGGDLWGQGTLVTVSSASTKGPSVFPLAPSSKSTSGGTAALGCLVKDYFPEPVTVSWNSGALTSGVHTFPAVLQSSGLYSLSSVVTVPSSSLGTQTYICNVNHKPSNTKVDKKVEPKSCDKTHTCPPCPAPELLTGPVVFLFPPKPKDTLMISRTPEVTCVVVDVSDEDPEVKFNWYVDGVEVHNAKTKPREELYNSTYRVVSVLTVLHQDWLNGKEYKCKVSNKALPKPIEKTISKAKGQPREPQVYTLPPSREEMTKNQVSLTCLVKGFYPSDIAVEWESNGQPENNYKTTPPVLDSDGSFFLYSKLTVDKSRWQQGNVFSCSVMHEALHNHYTQKSLSLSP
light: DIVMTQSPATLSLSPGERATLSCTSSQSVYHANWLSWFQQKPGQPPKLLIYWASTLAYGVPSRFSGSGSGTDFTLTISSLQPEDAATYYCAGGYGGGRYAFGQGTKVEIKRTVAAPSVFIFPPSDEQLKSGTASVVCLLNNFYPREAKVQWKVDNALQSGNSQESVTEQDSKDSTYSLSSTLTLSKADYEKHKVYACEVTHQGLSSPVTKSFNRGEC
KD fold (SG1 = 1) [1]: 4.1 fold
KD fold (SG1 = 1) [2]: 0.22 fold
KD fold (SG1 = 1) [3]: 3.8 fold
KD fold (SG1 = 1) [4]: 3.8 fold
KD fold (SG1 = 1) [5]: 2.5 fold
KD fold (SG1 = 1) [6]: 0.19 fold
KD fold (SG1 = 1) [7]: 3.9 fold
KD fold (SG1 = 1) [8]: 14.2 fold
KD fold (SG1 = 1) [9]: 4.3 fold

B2: M103205H795-MY533 / M103202L889-SK1 (antibody, human IgG1, kappa)
heavy: QVTLKESGPVLVKPTETLTLTCTVSGIDLSHDDISWVRQAPGKGLEWVGIISYAGSTYYASWAKGRLTISKDTSKNQVVLTMTNMDPVDTATYYCARGVPAYSHGGDLWGQGTLVTVSSASTKGPSVFPLAPSSKSTSGGTAALGCLVKDYFPEPVTVSWNSGALTSGVHTFPAVLQSSGLYSLSSVVTVPSSSLGTQTYICNVNHKPSNTKVDKKVEPKSCDKTHTCPPCPAPEWLTGPVVFLFPPKPKDTLMISRTPEVTCVVVDVSDEDPEVKFNWYVDGVEVHNAKTKPREELYNSTYRVVSVLTVLHQDWLNGKEYKCKVSNKALPKPIEKTISKAKGQPREPQVYTLPPSREEMTKNQVSLTCLVKGFYPSDIAVEWESNGQPENNYKTTPPVLDSDGSFFLYSKLTVDKSRWQQGNVFSCSVMHEALHNHYTQKSLSLSP
light: DIVMTQSPATLSLSPGERATLSCTSSQSVYHANWLSWFQQKPGQPPKLLIYWASTLAYGVPSRFSGSGSGTDFTLTISSLQPEDAATYYCAGGYGGGRYAFGQGTKVEIKRTVAAPSVFIFPPSDEQLKSGTASVVCLLNNFYPREAKVQWKVDNALQSGNSQESVTEQDSKDSTYSLSSTLTLSKADYEKHKVYACEVTHQGLSSPVTKSFNRGEC
KD fold (SG1 = 1) [1]: 3.3 fold
KD fold (SG1 = 1) [2]: 0.33 fold
KD fold (SG1 = 1) [3]: 5.5 fold
KD fold (SG1 = 1) [4]: 4.5 fold
KD fold (SG1 = 1) [5]: 4 fold
KD fold (SG1 = 1) [6]: 0.45 fold
KD fold (SG1 = 1) [7]: 7 fold
KD fold (SG1 = 1) [8]: 14.2 fold
KD fold (SG1 = 1) [9]: 7.2 fold
